# Assay results published in patent US9192622B2, “MicroRNA-130a,b as a tumor suppressor and sensitizing agent for chemotherapy” (University of Houston, priority 2011, dated 2015).
# B1: siP53: siRNA to p53 (SEQ ID NO: 27 and 28) (nucleic acid)
# chain 1: RGRGRARURURURCRARURCRURCRURURGRURARURARURGR
# chain 2: RURCRARURCRARURARURARCRARARGRARGRARURGRARARARURCRCRURC
# modifications: listed as RNA, chemistry not fully specified
# How the values were obtained:
# [1] = tested on: HeyA8 cells; test: Cisplatin dose-response, MTS viability with or without miR-130b; assay type: cell-based, human; settings: 72 hours
# Description: FIGS. 4A-4B: Impact of miR-130b on Cisplatin Dose-Response Curves. Cisplatin treated HeyA8 cells with either miR-130b or a negative control proliferation and apoptosis assays were measured 72 hours following treatment with cisplatin at the indicated concentrations. The assays were measured using MTS (FIG. 4A) and Caspase-Glo 3/7 (FIG. 4B) assays. The IC50 (concentration needed to reach 50% viability) values are shown beside the MTA graph. To assess the impact of miR-130b on cisplatin treatment, HEYA8 cells transfected with pmiR-130b, Negative control or nothing at a density of 2500 cells/well. Cells were treated with cisplatin across a range of concentrations from 0-10 μg/mL. After 72 hours, cells were assayed for growth and apoptosis activity using MTS and Caspase 3/7 assays from Promega as described before. Each sample was normalized to the parental non treated sample. Refractory disease that results from resistance to chemotherapy is a major problem for many ovarian cancer patients. The chemotherapy drug, cisplatin, works by intercalating the genomic DNA of tumor cells causing massive DNA damage that in turn causes the cells to undergo apoptosis or programmed cell […] et al. 2003). […] Seventy-two hours following cisplatin treatment, proliferation and caspase activity were measured using the same MTS and Caspase 3/7 assays used previously.
# [2] = tested on: p63/p53/p73 network genes in HeyA8 cells; test: qPCR gene expression after p53 siRNA with and without miR-130b; assay type: cell-based, human; settings: HeyA8, siRNA to p53, 72 hrs post-transfection
# Excerpt: FIGS. 6A-6B: Impact of siRNA against p53 on miR-130b-regulated patterns of gene expression. Since many of the up regulated genes that were induced by miR-130b were also downstream transcriptional targets of p53, transient, siRNA knockdown of p53 was used with and without miR-130b present in HeyA8 (FIG. 6A) and OVCAR8 (FIG. 6B) cells and used qPCR to measure our gene set again with respect to p53. The goal was to dissect the p53-dependent and independent impacts of miR-130b in the p53-wild type HeyA8.
# For gene expression analysis of target genes, 75 ng of total RNA from each sample was reverse transcribed using the qScript cDNA Super mix from Quanta Biosciences (95048). All RT-qPCR was carried out with the Veriti OneStep from Applied Biosystems. All qPCR experiments used the […] and Power SYBR Green Master Mix (Applied Biosystems). 18S was used as the endogenous control for all targets.
# To determine the role of p53 in miR-130b gene regulation the HEYA and OVCAR8 cell lines were co-transfected with miR-130b and p53 siRNA (IDT_HSC.RNAI.N000546.12.2, 5′-rGrGrA rUrUrU rCrArU rCrUrC rUrUrG rUrArU rArUrGr A-3′, SEQ ID NO: 27), 5′-rUrCrA rUrCrA rUrArU rArCrA rArGrA rGrArU rGrArA rArUrC rCrUrC-3′, SEQ ID NO: 28) 72 hrs post-transfection gene expression was assayed by Q-PCR as described before.
# To determine which of these gene expression changes are dependent on p53 patterns of gene expression in miR-130b over-expressing HeyA8 cells were compared in the presence of a siRNA to p53 (siP53).
Molecule,cisplatin IC50 (concentration needed to reach 50% viability) ([1]; HeyA8 with miR-130b) [µg/mL],cisplatin IC50 (concentration needed to reach 50% viability) ([1]; HeyA8 with negative miRNA control (NC)) [µg/mL],MDM2 expression level [2],RB1 expression level [2],p21 expression level [2],p53 expression level [2]
N.N.[Cl][Pt][Cl] [cisplatin],~9.9,~18.3,,,,
B1,,,down-regulated,up-regulated,down-regulated,down-regulated
